d = 2'-deoxy (DNA); r = 2'-OH (RNA)
Tests used:
[1] = system: HUVECs and U937 cells; assay: Heterotypic aggregation/adhesion between IFN-γ-treated HUVECs and U937 cells; format: cell-based, human
Procedure: HUVECs (1−5×10^4 cells/ml) were seeded onto a 12-well cell culture plate. After one day, the medium was exchanged with a low-serum medium containing 0.5% FBS, and the cells were pretreated with interferon-gamma (IFN-γ; Calbiochem) in a final concentration 10 ng/ml for 24 hrs. Then, the pretreated HUVECs were co-cultured with U937 cells (2×10^6 cells/ml, 500 μl) at 37° C. for 4 hrs. The co-culture was washed with phosphate buffer three or four times, and the remaining cells were fixed with 4% paraformaldehyde and microscopically observed.
HUVECs were transfected with an expression vector for Bst2, treated with or without IFN-γ and then transfected with Bst2 siRNA. These cells were assessed for U937 cell adhesion.
(§1) HUVECs were cultured in 12-well plates with or without transfection of Bst2 siRNA or control siRNA for 6 hr, then treated with or without IFNγ for 24 hr. In some experiments, cells were treated with crude media containing Bst2 decoy or mouse anti-human ICAM1 antibodies. After a wash with PBS (phosphate buffered saline), U937 cells were resuspended in serum free medium at 2×10^6 cells/ml. Assays were initiated by the addition of 200 ul U937 cells to HUVEC for a final volume of 1 ml. After 4 hr at 37° C., unbound U937 cells were removed by washing plates three times with PBS. Bound cells were fixed by the addition of 4% paraformaldehyde in PBS, and the bound cells were counted under microscopy in different fields. All statistical analyses were performed in Excel and statistical significance were evaluated with Student's t test. In some experiments, RNA samples were obtained from HUVECs after treatment with IFNγ and/or siRNAs, and real-time polymerase chain reaction (RT-PCR) analyses were performed.

[2] = system: ICAM1 expression or Bst2 expression; assay: RT-PCR of Bst2 and ICAM1 expression in IFNγ-treated HUVEC after siRNA; format: cell-based, human
Procedure: as §1
RT-PCR analyses were performed.

[3] = system: IL-4, IL-5 and IL-13; assay: Ovalbumin-induced mouse model of asthma: cytokines in lung tissue (immunoblot); format: in vivo; details: ovalbumin-sensitized asthmatic mice
Procedure: (§2) A mouse model of asthma was prepared by sensitizing mice (C57B6, 8 weeks) with ovalbumin. In detail, mice were initially sensitized for five continuous days by intranasal injection of ovalbumin. After three weeks, mice were intranasally sensitized again with ovalbumin for five continuous days. One week after the secondary sensitization, mice were challenged intranasally with ovalbumin three times every 24 hrs to induce asthma. Herein, a Bst2 decoy was intravenously injected into mice 30 min before sensitization with ovalbumin, and was injected into mice 30 min before the first sensitization and the last injection of ovalbumin. Three days after the last injection, serum samples, lung tissues, and the like were collected from mice.
When a Bst2 or Damp1 decoy was injected into a mouse model of asthma which was induced by sensitization and challenge with ovalbumin, expression levels of cytokines (interleukin-4 (IL-4), interleukin-5 (IL-5) and interleukin-13 (IL-13)) were measured as follows. […] The bound primary antibodies were detected with a HRP-conjugated secondary antibody (anti-rabbit HRP-conjugated IgG) using ECL reagent.
Expression of 11-4, IL-5 and IL-13 was measured in the murine asthma model as described in Example 8-3 after injection with Bst2 decoy or Bst2 decoy Fc fusion proteins.

[4] = system: U937 cells; assay: Competitive inhibition of U937 cell binding to Bst2 decoy coated plates; parameters: species or system human; details: cells pre-incubated with fusion proteins 2 hrs
Procedure: Competitive inhibition of Fc fusion proteins in the binding between BST2 decoy and cells was measured as follows. Flat-bottomed 96-well plates were coated with Bst2 decoy (50 ug/ml) with sodium bicarbonate (100 mM, pH 9.5) for 2 hrs at 37° C. The plates were washed with PBS (pH 7.4) and incubated with 1% bovine serum albumin (BSA) at 25° C. After a rinse with PBS (pH 7.4) containing 1 mM CaCl2 and 0.5 mM MgCl2, U937 cells (1×10^6/ml) were added to each Bst2-coated well. Before the addition, cells were pre-incubated with BST2 decoy-Fc fusion proteins for 2 hrs at 37° C. Bound cells were counted as described in Example 20.

[5] = In vivo stability of PEG-conjugated Bst2 decoy in rats (ELISA of blood samples); parameters: species or system rat; details: tail vein, 0.4 to 2 mg/kg, compared to Bst2 decoy
Procedure: The PEG-conjugated forms of Bst2 decoy, prepared in Example 11-1, were injected into the tail vein of 7 week-old male Sprague-Dawley rats in a dose of 0.4 to 2 mg/kg. A negative control group was injected with an equal dose of physiological saline. Also, an equal dose of Bst2 decoy protein was used as a positive control. Blood samples were collected before drug administration, and 2 min, 5 min, 10 min, 30 min, 1 hr, 2 hrs, 6 hrs, 12 hrs and 24 hrs after drug administration from the jugular vein using a cannula. The collected blood samples were analyzed by ELISA. A 96-well plate was coated with an anti-Bst2 decoy antibody (100 ng/ml in PBS) at 4° C. for 8 hrs or longer, and was blocked with albumin in PBS at 37° C. for 2 hrs. The plate was reacted with a proper dilution of rat serum or Bst2 decoy (standard sample) at 37° C. for 2 hrs. The plate was then reacted with a monoclonal antibody (mAb conjugated with horseradish peroxidase, Roche Inc.) recognizing the histidine tag added to the C-terminus of Bst2 decoy at 37° C. for 2 hrs. After being well washed, the plate was treated with a substance of peroxidase, and absorbance was measured at 450 nm. Quantitation of the PEG-conjugated Bst2 decoys present in blood was performed using the standard samples (FIG. 18). […]

[6] = system: mouse model of asthma; assay: Ovalbumin-induced mouse model of asthma: infiltrating cells in bronchoalveolar lavage; format: in vivo; details: ovalbumin-sensitized mice
Procedure: as §2
A mouse model of asthma was prepared as described in Example 8-1.
The effect of Bst2 decoy-Fc fusions on immune cell infiltration was assessed as described in Example 8-2. When ovalbumin-sensitized mice were treated with a Bst2 decoy, the total number of infiltrating cells was decreased and, especially, the number of neutrophils, eosinophils and lymphocytes except for macrophage was decreased in bronchoalveolar lavage (BAL) (FIG. 27).
A mouse model of asthma was prepared as described in Example 8-1. The effect of anti-Bst2/Damp1 antibodies on immune cell infiltration was assessed as described in Example 8-2. […]

Bst2 siRNA: siRNA against Bst2 mRNA target sequence SEQ ID NO:5; sense SEQ ID NO:6, antisense SEQ ID NO:7 (sense UUGUCCGCGAUUCUCACGCTT; antisense GCGUGAGAAUCGCGGACAATT; sugars from the 5' end r19 d2, backbone not given here)
U937 cell adhesion to HUVECs ([1]; HUVECs transfected with Bst2 expression vector, with or without IFN-γ): decreased U937 cell adhesion | cell adhesion between untransfected HUVEC and U937 cells ([1]; untransfected HUVEC, IFNγ stimulation): inhibitory effect | ICAM1 expression [2]: does not affect

B1: mouse Damp1 decoy: soluble Damp1 protein fragment having the amino acid sequence of SEQ ID NO:2 (protein, listed as Mus musculus)
chain: FAVTANSVACRDGLRAQAECRNTTHLLQRQLTRTQDSLLQAETQANSCNLTVVTLQESLEKKVSQALEQQARIKELENEVTKLNQELENLRIQKETSSTVQVNS
cell-cell interaction between human endothelial cells and human monocytic U937 cells [1]: inhibits cell-cell interaction

B2: Bst2 decoy-IgG Fc fusion proteins: recombinant chimeric fusion proteins of the extracellular domain of human Bst2 and the Fc region of human IgG (protein)
chain: NSEACRDGLRAVMECRNVTHLLQQELTEAQKGFQDVEAQAATCNHTVMALMASLDAEKAQGQKKVEELEGEITTLNHKLQDASAEVERLRRENQVLSVRIADKKYYPSSQD
modifications: left off: a dimerising Fc or GST
cytokine levels (IL-4, IL-5, IL-13) in lung tissue [3]: decreased | inhibition of U937 cell binding to Bst2 decoy coated cell culture plates [4]: concentration-dependent inhibition

B3: PEG-conjugated Bst2 decoy: aldehyde PEG-conjugated human Bst2 decoy sample (conjugate, UniProt Q10589 49-161, looked up)
extracellular domain: NSEACRDGLRAVMECRNVTHLLQQELTEAQKGFQDVEAQAATCNHTVMALMASLDAEKAQGQKKVEELEGEITTLNHKLQDASAEVERLRRENQVLSVRIADKKYYPSSQDSS
modifications: extracellular domain aldehyde PEG conjugate
notes: aldehyde PEG-conjugated human Bst2 decoy sample
metabolic degradation (in vivo stability) [5]: improved metabolic degradation

B4: 2-15: anti-Bst2/Damp1 monoclonal antibody; heavy chain variable SEQ ID NO:77, kappa SEQ ID NO:88 (antibody, V domains shown)
VH: MAQSVKESEGRLVTPGTPLTLTCTVSGFSLSNSGMSWVRQAPGKGLEWIGLINSYGTTYYASWAKGRFTISKTSTTVELKITSPTTEDTATYFCARGAGSSYGLWGQGTLVTVSSAS
VL: QAAELVMTQTPSSTSTAVGDTVTIKCQASQSIGSNLAWYQQKPGQPPKILIYSASNLASGVPSRFKGSGSGTEYTLTISGVQREDAATYYCLGSDSSWDTVFGGGTELEILRTV
modifications: 2-15 heavy chain variable region amino acid sequence; 2-15 kappa chain variable region amino acid sequence
number of infiltrating cells in bronchoalveolar lavage (total, neutrophils, eosinophils, lymphocytes) [6]: did not block immune cell infiltration significantly
